In the supplement of paper PMC10126150:
± gives the standard deviation of the averaged measurements.

Tested on: ATP
Assay: switch fluorescence ratio, 500 uM ATP over buffer (Cy3 cluster intensity, sum of 5 cycles each) (fold (ratio)); higher = stronger signal-on switching upon ATP binding; sequences stand for … in TCGTCGGCAGCGTCAGATGTGTATAAGAGACAGTTTTTTTTTTTTTTTTTTTTTTTTT…TC
Details: aptamer strand: ATP DNA aptamer (quencher-CACCTGGGGGAGTATTGCGGAGGAAGG + anchor), 100 nM annealed; ATP concentration: 500 uM
Method in brief: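 The fluorescence ratio divides summed target-cycle Cy3 intensity by summed buffer-cycle Cy3 intensity for each cluster and is averaged per switch-domain sequence. Cy3-labelled switching-strand clusters on a modified Illumina MiSeq flow-cell were annealed to 100 nM quencher-labelled ATP aptamer, then imaged in selection buffer and again after 15 min with 500 uM ATP at 22 °C. Five such cycles were run, with NaOH stripping and re-annealing between them, and clusters outside 100-1000 RFU were excluded.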
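Further: ATP exposure 15 min at 22 °C before imaging.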

GGGGTGGGCT and GGGGTGTGGG are within error of each other in switch fluorescence ratio: 0.956 ± 0.031 for the first, 1 ± 0.018 for the second.

GGGGTTACAT and GGGGTTAGGT are within error of each other in switch fluorescence ratio: 0.9919 ± 0.0072 for the first, 1.01 ± 0.031 for the second.

GGGGTTCAGA and GGGGTTCCTT are within error of each other in switch fluorescence ratio: 0.9846 ± 0.0041 for the first, 1 ± 0.034 for the second.

GGGGTTCTAG and GGGGTTCTTA are within error of each other in switch fluorescence ratio: 0.999 ± 0.0042 for the first, 1.02 ± 0.091 for the second.

GGGGTTCTTT and GGGGTTGGAC are within error of each other in switch fluorescence ratio: 1.09 ± 0.14 for the first, 0.9851 ± 0.0016 for the second.

GGGGTTGGAG and GGGGTTGTCG are within error of each other in switch fluorescence ratio: 0.979 ± 0.022 for the first, 0.989 ± 0.1 for the second.

GGGGTTTATA and GGGGTTTCGT are within error of each other in switch fluorescence ratio: 0.997 ± 0.026 for the first, 1.01 ± 0.067 for the second.

GGGGTTTGAG and GGGGTTTTAG are within error of each other in switch fluorescence ratio: 1.001 ± 0.0057 for the first, 1.01 ± 0.018 for the second.

GGGTAAAAAA and GGGTAAAGAT are the same in switch fluorescence ratio: 1.02 ± 0.045 for the first, 1.02 ± 0.021 for the second.

GGGTAAAGGG and GGGTAAAGTT are within error of each other in switch fluorescence ratio: 1 ± 0.045 for the first, 1.01 ± 0.027 for the second.

First: GGGTAAATCT
Second: GGGTAACCGA
The switch fluorescence ratio of the first is higher: 1.04 ± 0.026 for the first, 0.9832 ± 0.0019 for the second.

GGGTAACGGC and GGGTAAGAAA are within error of each other in switch fluorescence ratio: 1.01 ± 0.089 for the first, 0.9865 ± 0.0041 for the second.

GGGTAAGATC and GGGTAAGTTT are within error of each other in switch fluorescence ratio: 1.022 ± 0.0083 for the first, 1.007 ± 0.0044 for the second.

First: GGGTAATGGG
Second: GGGTAATTAC
The switch fluorescence ratio of the first is lower: 0.982 ± 0.024 for the first, 1.048 ± 0.0053 for the second.

GGGTAATTTG and GGGTACCGTA are within error of each other in switch fluorescence ratio: 1 ± 0.03 for the first, 0.959 ± 0.068 for the second.

First: GGGTACTGTA
Second: GGGTACTGTG
The switch fluorescence ratio of the first is higher: 1.09 ± 0.041 for the first, 0.971 ± 0.015 for the second.

Going from GGGTACTTAG to GGGTAGAAAG, the switch fluorescence ratio falls from 1.05 ± 0.041 to 0.97 ± 0.013.

GGGTAGAATT and GGGTAGCGGG are within error of each other in switch fluorescence ratio: 1.03 ± 0.039 for the first, 1.01 ± 0.033 for the second.

GGGTAGGCAG and GGGTAGGCGG are within error of each other in switch fluorescence ratio: 1.18 ± 0.25 for the first, 0.941 ± 0.029 for the second.

GGGTAGGGGA and GGGTAGGGGT are within error of each other in switch fluorescence ratio: 1 ± 0.049 for the first, 1.02 ± 0.074 for the second.

First: GGGTAGGTG
Second: GGGTATAAGA
The switch fluorescence ratio of the first is higher: 1.13 ± 0.039 for the first, 0.9976 ± 0.0075 for the second.

GGGTATAGGA and GGGTATAGTC are within error of each other in switch fluorescence ratio: 0.944 ± 0.033 for the first, 1.02 ± 0.074 for the second.

Going from GGGTATCGGG to GGGTATCGTA, the switch fluorescence ratio rises from 0.98857 ± 0.00067 to 1.01 ± 0.018.

GGGTATCTGT and GGGTATGGCC are the same in switch fluorescence ratio: 1.01 ± 0.032 for the first, 1.01 ± 0.025 for the second.

GGGTATGGGT and GGGTATGTAA are within error of each other in switch fluorescence ratio: 0.995 ± 0.043 for the first, 1.01 ± 0.066 for the second.

GGGTATTCTG and GGGTATTGCA are within error of each other in switch fluorescence ratio: 0.98 ± 0.053 for the first, 0.996 ± 0.018 for the second.

GGGTATTGCG and GGGTATTGTA are within error of each other in switch fluorescence ratio: 0.977 ± 0.083 for the first, 0.999 ± 0.02 for the second.

First: GGGTCAAAGA
Second: GGGTCAAAGT
The switch fluorescence ratio of the first is lower: 0.9705 ± 0.0086 for the first, 1.01 ± 0.013 for the second.

GGGTCAATGG and GGGTCAGAAA are the same in switch fluorescence ratio: 1.04 ± 0.031 for the first, 1.04 ± 0.11 for the second.

GGGTCAGGCT and GGGTCATGGG are within error of each other in switch fluorescence ratio: 0.981 ± 0.027 for the first, 0.989 ± 0.033 for the second.

GGGTCCAAAT and GGGTCCAAGG are within error of each other in switch fluorescence ratio: 1.02 ± 0.04 for the first, 1.03 ± 0.029 for the second.

First: GGGTCCCCGC
Second: GGGTCGCCTG
The switch fluorescence ratio of the first is higher: 1.12 ± 0.056 for the first, 0.992 ± 0.033 for the second.

GGGTCGTAGG and GGGTCTCCAT are within error of each other in switch fluorescence ratio: 1.002 ± 0.0011 for the first, 1.02 ± 0.03 for the second.

GGGTCTGGAG and GGGTCTGGGG are within error of each other in switch fluorescence ratio: 1 ± 0.034 for the first, 0.995 ± 0.022 for the second.

GGGTCTTCTC and GGGTCTTGTG are within error of each other in switch fluorescence ratio: 1.01 ± 0.053 for the first, 0.989 ± 0.022 for the second.

GGGTGAAATG and GGGTGAACTT are within error of each other in switch fluorescence ratio: 0.994 ± 0.023 for the first, 0.988 ± 0.033 for the second.

GGGTGACATT and GGGTGAGAGG are within error of each other in switch fluorescence ratio: 0.997 ± 0.094 for the first, 0.9944 ± 0.0075 for the second.

GGGTGAGGCA and GGGTGATATT are within error of each other in switch fluorescence ratio: 0.9988 ± 0.0086 for the first, 0.996 ± 0.026 for the second.

GGGTGATCGT and GGGTGATGGC are within error of each other in switch fluorescence ratio: 0.997 ± 0.013 for the first, 1.01 ± 0.013 for the second.

GGGTGCAAGC and GGGTGCATGC are within error of each other in switch fluorescence ratio: 1.058 ± 0.0049 for the first, 1.07 ± 0.084 for the second.

GGGTGCGGCT and GGGTGCGGGC are within error of each other in switch fluorescence ratio: 1.11 ± 0.14 for the first, 1.04 ± 0.098 for the second.

GGGTGGACAC and GGGTGGAGTT are within error of each other in switch fluorescence ratio: 0.947 ± 0.065 for the first, 0.9672 ± 0.0046 for the second.

GGGTGGATGA and GGGTGGATTG are within error of each other in switch fluorescence ratio: 1.03 ± 0.042 for the first, 0.983 ± 0.039 for the second.

GGGTGGGATG and GGGTGGGCGG are within error of each other in switch fluorescence ratio: 0.984 ± 0.017 for the first, 0.974 ± 0.022 for the second.

Compared with GGGTGGGCTC, GGGTGGGGGT is higher in switch fluorescence ratio: 0.971 ± 0.026 for the first, 1.03 ± 0.018 for the second.

GGGTGGGTA and GGGTGGGTTA are within error of each other in switch fluorescence ratio: 1.03 ± 0.03 for the first, 1.01 ± 0.038 for the second.

GGGTGGTAAG and GGGTGGTCTG are within error of each other in switch fluorescence ratio: 0.997 ± 0.051 for the first, 1.01 ± 0.031 for the second.

GGGTGGTGGT and GGGTGTCAGC are within error of each other in switch fluorescence ratio: 0.981 ± 0.043 for the first, 1.02 ± 0.017 for the second.

GGGTGTGCGC and GGGTGTGCGG are within error of each other in switch fluorescence ratio: 1.0134 ± 5.8e-05 for the first, 0.972 ± 0.038 for the second.

GGGTGTGGG and GGGTGTGTGG are within error of each other in switch fluorescence ratio: 0.986 ± 0.05 for the first, 1 ± 0.017 for the second.
